# Laboratory results from the DeepSol protein solubility set.
# Experiment: soluble on expression in E. coli; label from the status in PepcDB or PDB records
row,Sequence,soluble on expression in E. coli
1,MKKFFMASLLGSAIALCTTAMAASTDLKALEDAARKEGTVNSVGMPDAWANWKGTWEDLASKYGLKHSDTDMSSAQELAKFEAEKDNASADIGDVGAAFGPIAVTKGVSQPYKPSTWDQVPEWAKDKDGHWALAYTGTIAFIINKDLVKEEERPKTWHDLEKGKYKVAIGDVGTAAQAANGVLAAAIAYKGDESNVAPGLQLFTKLAQQKRLSLANPTIQTLEKGEVEVGVVWDFNGLSYREQIDPKRFEVLIPSDGSVISGYTTVINKYAKHPNAAKLTREYIFSDAGQINLAKGHARPIRAEHLKLPADVQAKLLPNDQYAAAQPIKNAEAWEATSKKLPQMWQEQVIIEME,not soluble
2,GPGSMSTALFVQATFFNTDNKSTDNKLMTTAAVSHNQSSQDNIMVVNLQKELQKRLEEDAGVKTLYITMGGEPRFNRALFENKSMALFVGDSMSIHHFTDDYGRITRRLLILYPMTFSRREEIPKQQILKKVEKAANQPEDNCGIEVVDLVELQKKHVYLEGQAAACYSYNGEFVYMALSGRSSEQVLSIICAPENLNIPNEKRFVFTAVLPHRSKENGRVIGEDVIPYTSLVGWCGKGICAWGLEFLRFPSEKDQEAFYEHLENNYSKVINLDESELRAFCGNAREVAIAHGNGERRVLCISHQALNALRPFKRQMLEDWYGLGNILPFYADVLERRAGRSVGSLVSVPVIHGEVLPLPGELGVIEAAKVDIKDGGC,soluble
3,MSLVRNMTIASELGYLHVPEGVLIDLKKVDSLRDDEIVLMCTGSQGEPMAALSRMANGDHKVQVGHGDTVILASSLIPGNENAVFRIINGLTRLGARVVHGGNAKVHVSGHASAGELLYCYNVLKPKNVMPVHGEVRHLVANGALAVRTGVPADRVVLAEDGVVVDLVDGRASVVGAVPCGYVYVDGSSVGEITDAELKDRRILGEEGFVSVFAVVDSATGKVLAGPQILARGFAEDDKVFQDIQPEVVKALEDAIAGGATDTHQLQQVMRRVIGRWVSNRLRRRPMIVPVVVEAEGHHHHHH,soluble
4,MGSDKIHHHHHHMADNKIIQHVYIVGSKGIPANYGGFETFVEKLTAGQENRQIKYHVASRFDNSEQAGKKQRFEYNGADVFSIDVPNIGSAQAIVYDYKALKEAIRISKQNQDKHPIFYVLANRIGPFAKHFAKEIHALGGRFYLNPDGHEWARAKWPKPVRKYWKYSEKKMVAAADLIIADNPEIEKYIKKEYSSFHPQTTYIAYGTDVQRSKLTMKDQKVRDWFKQKRITENNYFLVVGRFVPENNYETMIREFMTSRTKKDFVLVTNVEKNRFYERLKQRTHFDQDPRIKFVGTVYDQELLKYIRENAFAYFHGHEVGGTNPSLLEALSMTRLNMLIDVPFNRAVAKEGAMYWNKAIGNLTAQINQTETYDKKRIIDYTQAARKRVTDEFTWESIIAKYEELFVS,not soluble
5,MLSFRNWWAREDSNPRPPGYEPGALPTELRAHTAIRLYSNKTPLSRSVISMKKDPIKEMLVKYPRILVIKAALKILKDGNKIDRERIEKTIVKIMTKKEG,not soluble
6,MGGSHHHHHHGMASALVRISKPKTFQAYLDDCHRRYSCAHCRAHLANHDDLISKSFQGSQGRAYLFNSVVNVGCGPAEERVLLTGLHAVADIHCENCKTTLGWKYEQAFESSQKYKEGKYIIELNHMIKDNGWD,not soluble
7,MRFPELEELKNRRTLKWTRFPEDVLPLWVAESDFGTCPQLKEAMADAVEREVFGYPPDATGLNDALTGFYERRYGFGPNPESVFAIPDVVRGLKLAIEHFTKPGSAIIVPLPAYPPFIELPKVTGRQAIYIDAHEYDLKEIEKAFADGAGSLLFCNPHNPLGTVFSEEYIRELTDIAAKYDARIIVDEIHAPLVYEGTHVVAAGVSENAANTCITITATSKAWNTAGLKCAQIFFSNEADVKAWKNLSDITRDGVSILGLIAAETVYNEGEEFLDESIQILKDNRDFAAAELEKLGVKVYAPDSTYLMWLDFAGTKIEEAPSKILREEGKVMLNDGAAFGGFTTCARLNFACSRETLEEGLRRIASVL,not soluble
8,MIQKINILDSSQSGVKNGADSEAVLAALIEHLELINPSGRLSQNTRSAMLQLREEEWSEFFFWLLNSLECLDYVIINLTPESKKTLMSEHRNNIQVAIDALYSQRRRKSPGDESETLTRRNDAIFGNHVWQTFAQYFPPGLEKPSV,not soluble
9,MGSDKIHHHHHHMSDVIEQYFVKNEPYYRPVADEVKLYEAAYSVRMPMMLKGPTGCGKTRFVEYMAWKLGKPLITVACNEDMTASDLVGRFLLDAQGTRWQDGPLTTAARYGAICYLDEVVEARQDTTVVIHPLTDNRRVLPLEKKGELVGAHPDFQLVISYNPGYQSLMKDLKQSTKQRFGALDFNYPQHDIETEIVSHETGIDSAIADKLVSIAERARNLKGHGLDEGISTRMLIYAGNLIAKGVDVHAACRMALVRPITDDPDMRDALDAAVTTFF,not soluble
10,AMAISDPEETLMDSTTATAELGWMVHPPSGWEEVSGYDENMNTIRTYQVCNVFESSQNNWLRTKFIRRRGAHRIHVEMKFSVRDCSSIPSVPGSCKETFNLYYYEADFDLATKTFPNWMENPWVKVDTIAADESISQVDLGGRVMKINTEVRSFGPVSRNGFYLAFQDYGGCMSLIAVRVFYRKCPR,soluble
11,AIAASLSDQSGSIGSEQTRPSGAIPVESLPPQALEQLIASLQQEVEQLADALQQLNFANQRWTLCKQSIEAFAEETTRVDLPGAQSRATDAISSTASAKPETSVEVNQNQRLLVPLSRSLYVLGRVINPERCLIDIGTGYHVERKLADAAEFFDRRLKHVRGSMRQLTLKIDQNQQQMQTIREILVRKLAGAQQAAEHT,soluble
12,MKIVTFQGGLGNQLFQYVFYLWLDMRCDKDNIYGYYPKKGLRAHNGLEIEKVFEVKLPNSSLSTDLIVKSIKLINKIFKNRQYISTDGRLDVNGVLFEGFWQDKYFWEDVDIVLNFRWPLKLDVTNSFIMTKIQANNSISIHIRRGDYLLPKYRNIYGDICNEEYYQKAIEYILKCVDDPFFFVFSDDIDWAKSIINVSNVTFVNNNKGKDSYIDMFLMSLCHHNIIANSTFSWWAAQLNKHSDKIMIAPIRWFKSLFKDPNIFTESWIRILEHHHHHH,not soluble
13,MNRRDFLQFGLRGIVVAGLGKGFYNTTSEQVEIVRTSVKIRNLPAALQGLKIGLLTDLHASFVVSSETIRSAGRLLMAEKPDLIVMTGDYISGSTRFLSGSVGQFKKEYLSKCIDALSGLKAPLGIYGVLGNHDFWSGPESVKAICEAFTRQMGMVWLRNSSVEIRRGRGSLHLLGVDDYWEPSCSLAAACKGVDTDGIKILLSHNPDINDEIFLLRERIDLVLSGHTHGGQVVVPFLGQPVMPSKFGQKYRAGLVRDGDRQTYISRGVGCLLAPIRLNCPPEATVLTLTLEHHHHHH,soluble
14,GPGSMYQLWGGSPFKPHKQNPSIMIDKSGTEVRLIGESRDVLQTLATNPKWANTYLAISSTCDVPSWARELLGTFEFTDYAGKTVPMHSLFSDRIEIYKANKAKQHEMILQKVNKVDPSVSEYAQMLFFDNQTDNVRHVSGIGVTSCYCPSGMTKGTFEKGLEMWRRAAAVEDVRYDRVVECRA,not soluble
15,MAARQQLALLSVSEKAGLVEFARSLNALGLGLIASGGTATALRDAGLPVRDVSDLTGFPEMLGGRVKTLHPAVHAGILARNIPEDNADMNKQDFSLVRVVVCNLYPFVKTVSSPGVTVPEAVEKIDIGGVALLRAAAKNHARVTVVCDPADYSSVAKEMAASKDKDTSVETRRHLALKAFTHTAQYDAAISDYFRKEYSKGVSQLPLRYGMNPHQSPAQLYTTRPKLPLTVVNGSPGFINLCDALNAWQLVKELKQALGIPAAASFKHVSPAGAAVGIPLSEEEAQVCMVHDLHKTLTPLASAYARSRGADRMSSFGDFIALSDICDVPTAKIISREVSDGVVAPGYEEEALKILSKKKNGGYCVLQMDPNYEPDDNEIRTLYGLQLMQKRNNAVIDRSLFKNIVTKNKTLPESAVRDLIVASIAVKYTQSNSVCYAKDGQVIGIGAGQQSRIHCTRLAGDKANSWWLRHHPRVLSMKFKAGVKRAEVSNAIDQYVTGTIGEDEDLVKWQAMFEEVPAQLTEAEKKQWIAKLTAVSLSSDAFFPFRDNVDRAKRIGVQFIVAPSGSAADEVVIEACNELGITLIHTNLRLFHH,soluble
16,MGSDKIHHHHHHMDAFEKVRTRLETQPQEEYEVVNAEIKHGGFVYYQEGCCLVRSKDEEADSDNYEVLFNLEELKLDQPFIDCIRVAPDEKYVAAKIRTEDSETSTLVVVKLSDQPVMEASFPNVSSFEWVKDEEDEDVLFYTFQRNLRCHDVYRATFGDNKRNERFYTEKDPSYFVFLYLTKDSRFLTLNIMNKTTSEVWLIDGLSPWDPPVLIQKRIHGMLYYVEHRDDELYILTNVGEPTEFKLMRTAADAPAIMNWDLFFTMKRNTKVVDLDMFKDHCVLFLKHSNLLYVNVIGLADDSVRSLKLPPWACGFIMDTNSDPKNCPFQLCSPIRPPKYYTYKFAEGKLFEETGHEDPITKTSRVLRIEAKSKDGKLVPMTVFHKTDSEDLQRKPLLVHVYGAYGMDLKMNFRPEKRVLVDDGWILAYCHVRGGGELGLQWHADGRLTKKLNGLADLVACIKTLHSQGFSQPSLTTLSAFSAGGVLVGALCNSKPELLRAVTLEAPFLDVLNTMLDTTLPLTLEELEEWGNPSSDEKHKNYIKRYCPCQNIKPQHYPSVHITAYENDERVPLKGIVNYTEKLKEAVAEHTKGAGEGYQPPNIILDIQPGGNHVIEDSHKKITTQMKFLYEELGLDSTDAFEALKKYLKF,soluble
17,MAGDPMDKNKLFFIETWGCQMNAEDSEKLAGMLKEMKYEATDNREDADLIIFNTCCVRENAELKVYGNLGTLKKLKDKKPNLIITVCGCMMQQRDMAEHIKKRFPFVDIVMGTHNTQMFPQYLKKVENERTSVVEIWDKEEGIVEGMPIYRSYDMKAFVTIMYGCNNFCTYCIVPYVRGRERSRKPEDIENEIKELVKKGYKEITLLGQNVNSYGKSLDEEMNFALLLRRLNNIEGLLRIRFMTSHPKDLTDDVIAAIADCDKVCEHIHLPVQSGSTTILNKMNRNYTREDYINLVNKIKSGIKNVAITTDIIVGFPGETEEDFEDTLSLVKEVEYDSAFTFLYSIREGTPAAKYENQIPDEVKHKRFNKLLEAVNLISEKKNKEYEGKIVEILVEGKSKNDGSKLMGRTRTGKLVNFEGLESSIGKLINVKITKAQAFSLVGEEVLEHHHHHH,not soluble
18,MGSDKIHHHHHHMNELQAILEGFESSQESGEITFLATVVKTQGSTYRRPGAKMFMTNTGRTIGTISAGCLENDVFEYTQQRMSDGKPILVTYDRTASEDILWGFGLGCNGVVQVLIERLERKSIPNAIAFTQECFHKKHLGIIATVFAFEGEVDVELGSRLLLYPNGKIVTDIKDQYLIQSLSADTQAAFVNQKPSVNNYQLPFGSAEVFIEVIQPPTPLVIFGAGYGAVPIAKFAQALGWDVTVVDCRANDTTRARFPLACDVILSNRYIIHKQIFIDVQTIAVVMTHNYLDDLEILKMMLPSPARYIGVLGTKYRTERLLEDLSIKGIVPTSEQLNRLYSPVGIDIGAETPEEIAIAIIAEIQAVLKNRNSNFLKNRNQPIHKSYQDNFNL,not soluble
19,MSLKLTRLSLWHIPLTSHETYYMAGGKTCDTTMTTLIRLDTDSGLSGWGEVCPIPHYLPAYADGVAPALTELAPIILGADPLGAEALMERCNAYLLGHDYAKSALDIALWDITARAAGLPLHALLGGRAMADMPLYHSITCVAPDEMARIARDAQAQGMTQFQVKLGADGDWQADVARLSHVREAVGPGPLVYGDWNCGSDSLTASRVGRAVAHLDVMLEQPCRTIQECAAVRDATGLPMKLDETAHDIPSLLDGHRRGCMDAVALKLSKFGGLSATRRARDLCLALGTRMCIEDTWGSDVTTAALLHLAAATPARGLMNTCDLSHYVGPRLAPDGPTRHMGRIAPPEGPGLGITPDMDVLGTPQLILDEGHHHHHH,soluble
